Values of other authors as cited in patent US9522171B2 (priority 2010, dated 2016).

Columns and labels:
C5 [1] = target: T1, C5 (Homo sapiens, UniProt P01031); details: human serum; cited from earlier work
T1 construct: from tissue; host or cells: human serum

C5 [2] = target: T2, C5 (Rattus norvegicus, UniProt P08650); details: rat serum; cited from earlier work
T2 construct: from tissue; host or cells: rat serum

[3] = tested on: alternative, classical and lectin complement pathways; details: cited from earlier work
C5 [4] = target: T3, C5 (Mus musculus, UniProt P06684); details: mouse serum; cited from earlier work
T3 construct: from tissue; host or cells: mouse serum
T3 sequence (P06684 19-1680): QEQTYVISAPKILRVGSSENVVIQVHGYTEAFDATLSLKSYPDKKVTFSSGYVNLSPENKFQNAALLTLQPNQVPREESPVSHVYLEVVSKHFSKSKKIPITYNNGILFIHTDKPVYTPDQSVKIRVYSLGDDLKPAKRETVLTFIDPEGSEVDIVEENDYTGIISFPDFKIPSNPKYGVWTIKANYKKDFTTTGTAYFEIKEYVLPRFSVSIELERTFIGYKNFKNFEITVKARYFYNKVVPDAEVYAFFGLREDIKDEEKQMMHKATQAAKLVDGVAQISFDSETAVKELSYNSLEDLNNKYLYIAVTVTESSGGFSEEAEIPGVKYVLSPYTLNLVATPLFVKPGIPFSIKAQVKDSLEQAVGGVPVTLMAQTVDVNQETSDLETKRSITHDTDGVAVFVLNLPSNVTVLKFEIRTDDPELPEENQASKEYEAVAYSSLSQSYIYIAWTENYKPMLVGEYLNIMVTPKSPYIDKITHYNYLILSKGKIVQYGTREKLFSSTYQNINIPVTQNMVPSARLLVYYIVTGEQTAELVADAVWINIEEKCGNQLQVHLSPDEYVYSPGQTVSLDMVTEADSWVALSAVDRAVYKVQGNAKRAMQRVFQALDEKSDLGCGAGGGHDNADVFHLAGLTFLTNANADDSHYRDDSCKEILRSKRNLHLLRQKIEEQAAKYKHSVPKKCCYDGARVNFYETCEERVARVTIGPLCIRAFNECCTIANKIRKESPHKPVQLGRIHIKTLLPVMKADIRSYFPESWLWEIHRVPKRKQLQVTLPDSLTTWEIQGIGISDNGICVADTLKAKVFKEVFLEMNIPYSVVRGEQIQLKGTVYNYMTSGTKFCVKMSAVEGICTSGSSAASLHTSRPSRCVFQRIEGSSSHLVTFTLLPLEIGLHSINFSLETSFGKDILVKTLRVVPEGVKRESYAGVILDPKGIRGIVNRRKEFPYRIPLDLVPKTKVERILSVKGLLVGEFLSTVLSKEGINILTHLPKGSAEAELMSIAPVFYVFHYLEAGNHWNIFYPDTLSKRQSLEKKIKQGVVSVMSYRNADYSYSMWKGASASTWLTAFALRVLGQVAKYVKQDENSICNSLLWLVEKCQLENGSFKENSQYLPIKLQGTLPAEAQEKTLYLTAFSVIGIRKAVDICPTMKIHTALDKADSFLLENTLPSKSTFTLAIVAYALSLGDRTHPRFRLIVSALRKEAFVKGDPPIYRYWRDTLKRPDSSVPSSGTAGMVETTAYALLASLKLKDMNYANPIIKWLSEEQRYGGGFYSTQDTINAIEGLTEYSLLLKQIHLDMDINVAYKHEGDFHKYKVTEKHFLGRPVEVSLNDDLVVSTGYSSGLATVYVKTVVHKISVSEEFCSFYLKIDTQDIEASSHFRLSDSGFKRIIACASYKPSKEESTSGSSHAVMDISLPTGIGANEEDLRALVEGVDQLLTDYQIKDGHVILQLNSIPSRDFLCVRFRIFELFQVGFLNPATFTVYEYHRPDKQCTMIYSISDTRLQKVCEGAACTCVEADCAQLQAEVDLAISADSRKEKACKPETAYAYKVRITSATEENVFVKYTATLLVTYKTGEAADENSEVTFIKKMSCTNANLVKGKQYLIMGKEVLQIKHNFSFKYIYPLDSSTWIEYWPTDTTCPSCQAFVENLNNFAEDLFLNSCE

T2 sequence (P08650 19-1681): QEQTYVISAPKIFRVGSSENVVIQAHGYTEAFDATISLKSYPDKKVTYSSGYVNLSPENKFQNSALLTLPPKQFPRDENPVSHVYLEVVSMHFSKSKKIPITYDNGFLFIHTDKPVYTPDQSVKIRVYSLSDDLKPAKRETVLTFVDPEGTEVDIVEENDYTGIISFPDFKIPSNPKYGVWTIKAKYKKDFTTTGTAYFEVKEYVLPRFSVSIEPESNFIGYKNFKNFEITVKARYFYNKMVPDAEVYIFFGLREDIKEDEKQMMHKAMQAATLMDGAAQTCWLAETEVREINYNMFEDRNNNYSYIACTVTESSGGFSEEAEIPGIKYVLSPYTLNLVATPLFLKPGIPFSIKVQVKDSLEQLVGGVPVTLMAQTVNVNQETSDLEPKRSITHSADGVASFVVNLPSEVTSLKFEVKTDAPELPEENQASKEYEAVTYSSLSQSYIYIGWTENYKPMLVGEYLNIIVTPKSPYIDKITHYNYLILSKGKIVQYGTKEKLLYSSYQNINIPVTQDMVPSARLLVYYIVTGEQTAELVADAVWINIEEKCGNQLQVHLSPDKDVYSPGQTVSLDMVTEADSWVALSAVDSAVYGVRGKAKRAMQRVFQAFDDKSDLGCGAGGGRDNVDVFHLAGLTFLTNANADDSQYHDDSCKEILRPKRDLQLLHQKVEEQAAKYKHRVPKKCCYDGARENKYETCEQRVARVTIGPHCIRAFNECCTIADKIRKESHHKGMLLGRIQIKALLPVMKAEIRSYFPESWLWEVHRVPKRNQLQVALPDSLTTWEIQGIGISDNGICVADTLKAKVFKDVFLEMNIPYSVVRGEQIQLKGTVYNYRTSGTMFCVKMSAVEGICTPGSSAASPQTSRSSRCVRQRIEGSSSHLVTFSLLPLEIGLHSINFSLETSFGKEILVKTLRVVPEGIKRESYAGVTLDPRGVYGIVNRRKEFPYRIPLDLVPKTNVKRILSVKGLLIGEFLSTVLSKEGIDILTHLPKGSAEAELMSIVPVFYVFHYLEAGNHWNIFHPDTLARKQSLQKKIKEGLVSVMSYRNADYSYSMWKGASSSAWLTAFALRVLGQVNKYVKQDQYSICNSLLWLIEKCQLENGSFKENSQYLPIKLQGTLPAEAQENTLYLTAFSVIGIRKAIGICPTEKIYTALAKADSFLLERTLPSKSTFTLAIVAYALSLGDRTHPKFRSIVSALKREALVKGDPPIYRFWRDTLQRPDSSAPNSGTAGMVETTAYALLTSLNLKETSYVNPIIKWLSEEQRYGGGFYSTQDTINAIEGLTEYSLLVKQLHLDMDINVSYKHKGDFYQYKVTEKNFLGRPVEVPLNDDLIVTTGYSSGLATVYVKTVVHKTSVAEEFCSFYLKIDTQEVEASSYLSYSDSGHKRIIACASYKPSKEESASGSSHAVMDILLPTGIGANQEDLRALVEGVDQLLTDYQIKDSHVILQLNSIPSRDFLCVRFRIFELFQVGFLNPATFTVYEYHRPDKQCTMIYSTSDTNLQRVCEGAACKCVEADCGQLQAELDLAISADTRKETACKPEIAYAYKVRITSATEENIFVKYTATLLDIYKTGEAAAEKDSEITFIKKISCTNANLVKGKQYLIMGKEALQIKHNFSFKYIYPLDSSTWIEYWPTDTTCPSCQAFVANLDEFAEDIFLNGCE
T1 sequence (P01031 19-1676): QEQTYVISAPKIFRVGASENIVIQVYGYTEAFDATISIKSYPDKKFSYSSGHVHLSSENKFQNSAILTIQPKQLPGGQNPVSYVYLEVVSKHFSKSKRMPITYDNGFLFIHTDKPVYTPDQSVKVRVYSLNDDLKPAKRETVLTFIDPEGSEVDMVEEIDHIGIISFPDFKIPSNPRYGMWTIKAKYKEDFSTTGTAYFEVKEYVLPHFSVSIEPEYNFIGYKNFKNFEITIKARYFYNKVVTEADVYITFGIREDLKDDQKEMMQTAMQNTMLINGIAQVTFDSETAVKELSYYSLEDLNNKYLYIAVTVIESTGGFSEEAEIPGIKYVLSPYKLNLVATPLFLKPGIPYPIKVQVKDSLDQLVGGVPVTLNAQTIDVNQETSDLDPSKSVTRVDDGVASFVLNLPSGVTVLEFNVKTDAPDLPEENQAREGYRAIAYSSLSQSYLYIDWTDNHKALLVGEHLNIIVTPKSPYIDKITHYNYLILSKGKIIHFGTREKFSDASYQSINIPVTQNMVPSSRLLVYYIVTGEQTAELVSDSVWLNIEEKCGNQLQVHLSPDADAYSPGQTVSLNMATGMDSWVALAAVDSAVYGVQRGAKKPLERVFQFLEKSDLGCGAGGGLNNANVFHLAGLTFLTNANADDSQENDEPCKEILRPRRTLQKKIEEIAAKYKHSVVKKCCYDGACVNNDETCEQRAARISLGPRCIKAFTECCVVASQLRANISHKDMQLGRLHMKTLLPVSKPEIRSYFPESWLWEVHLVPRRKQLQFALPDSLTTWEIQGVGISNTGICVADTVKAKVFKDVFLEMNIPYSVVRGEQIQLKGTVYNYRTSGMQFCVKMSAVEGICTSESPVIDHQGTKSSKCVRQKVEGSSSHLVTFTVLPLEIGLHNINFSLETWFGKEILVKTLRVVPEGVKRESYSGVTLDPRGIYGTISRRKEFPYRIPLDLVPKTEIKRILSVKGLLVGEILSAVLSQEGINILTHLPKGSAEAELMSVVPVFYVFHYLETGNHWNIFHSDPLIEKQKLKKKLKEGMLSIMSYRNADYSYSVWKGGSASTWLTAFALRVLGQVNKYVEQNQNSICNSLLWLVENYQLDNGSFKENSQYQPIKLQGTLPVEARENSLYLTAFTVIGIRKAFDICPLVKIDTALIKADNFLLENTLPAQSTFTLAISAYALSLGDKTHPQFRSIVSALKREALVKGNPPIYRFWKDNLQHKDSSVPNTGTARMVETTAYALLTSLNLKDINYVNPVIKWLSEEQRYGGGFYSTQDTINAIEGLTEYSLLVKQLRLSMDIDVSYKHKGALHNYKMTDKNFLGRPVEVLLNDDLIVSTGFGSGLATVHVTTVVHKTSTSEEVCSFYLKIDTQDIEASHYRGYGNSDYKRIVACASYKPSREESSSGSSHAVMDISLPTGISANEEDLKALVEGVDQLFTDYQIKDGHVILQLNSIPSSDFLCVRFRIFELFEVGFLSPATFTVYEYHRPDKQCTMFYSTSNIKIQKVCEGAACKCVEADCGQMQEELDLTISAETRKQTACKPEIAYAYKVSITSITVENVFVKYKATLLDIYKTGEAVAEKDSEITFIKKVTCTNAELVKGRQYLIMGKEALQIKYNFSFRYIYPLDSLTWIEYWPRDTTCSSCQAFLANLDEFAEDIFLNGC

## EV576: Lipocalin protein from salivary glands of the tick Ornithodoros moubata, sequence of FIG. 2; binds complement C5 and LTB4
C5 [1]
  IC50 for binding C5 and preventing its cleavage by C5 convertase: approximately 0.02 mg/ml
C5 [2]
  IC50 for binding C5 and preventing its cleavage by C5 convertase: approximately 0.02 mg/ml
[3]
  inhibition of the complement system: inhibits the alternative, classical and lectin complement pathways
C5 [4]
  IC50 for binding C5 and preventing its cleavage by C5 convertase: approximately 0.02 mg/ml
